Series [1] concerns C=C(CC[C@@H](C)[C@H]1CC[C@@]2(C)C3=C(CC[C@]12C)[C@@]1(C)CC[C@H](O)[C@@H](C)[C@@H]1CC3)C(C)C. Kind of series: purified protein, by the assay type. As to conditions: other: 37 °C, 1 min reactions obtusifoliol, 20 min lanosterol.
Series [2] deals with CC(C)=CCC[C@@H](C)[C@H]1CC[C@@]2(C)C3=C(CC[C@]12C)[C@@]1(C)CC[C@H](O)C(C)(C)[C@@H]1CC3. Kind of series: purified protein, by the assay type. To be noted: other: 37 °C, 1 min reactions obtusifoliol, 20 min lanosterol.
In the next series the target is T1, A. castellanii CYP51 (Acanthamoeba castellanii, UniProt L8GJB3, V2A).
T1 sequence (L8GJB3 1-486 V2A): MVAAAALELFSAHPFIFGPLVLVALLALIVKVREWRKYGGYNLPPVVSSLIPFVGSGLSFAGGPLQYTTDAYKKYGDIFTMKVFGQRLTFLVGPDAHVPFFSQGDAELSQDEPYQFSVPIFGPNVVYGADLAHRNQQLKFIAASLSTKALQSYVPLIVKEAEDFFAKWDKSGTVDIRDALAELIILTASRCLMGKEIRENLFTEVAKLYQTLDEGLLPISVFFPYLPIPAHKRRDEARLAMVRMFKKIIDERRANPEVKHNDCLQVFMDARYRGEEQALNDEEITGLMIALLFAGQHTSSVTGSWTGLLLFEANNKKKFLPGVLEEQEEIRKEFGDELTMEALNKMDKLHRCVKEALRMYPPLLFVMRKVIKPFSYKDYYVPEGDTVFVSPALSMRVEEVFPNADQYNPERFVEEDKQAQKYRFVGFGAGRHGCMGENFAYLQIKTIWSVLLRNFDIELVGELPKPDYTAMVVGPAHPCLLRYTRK
T1 sequence (P00388 2-678 partner): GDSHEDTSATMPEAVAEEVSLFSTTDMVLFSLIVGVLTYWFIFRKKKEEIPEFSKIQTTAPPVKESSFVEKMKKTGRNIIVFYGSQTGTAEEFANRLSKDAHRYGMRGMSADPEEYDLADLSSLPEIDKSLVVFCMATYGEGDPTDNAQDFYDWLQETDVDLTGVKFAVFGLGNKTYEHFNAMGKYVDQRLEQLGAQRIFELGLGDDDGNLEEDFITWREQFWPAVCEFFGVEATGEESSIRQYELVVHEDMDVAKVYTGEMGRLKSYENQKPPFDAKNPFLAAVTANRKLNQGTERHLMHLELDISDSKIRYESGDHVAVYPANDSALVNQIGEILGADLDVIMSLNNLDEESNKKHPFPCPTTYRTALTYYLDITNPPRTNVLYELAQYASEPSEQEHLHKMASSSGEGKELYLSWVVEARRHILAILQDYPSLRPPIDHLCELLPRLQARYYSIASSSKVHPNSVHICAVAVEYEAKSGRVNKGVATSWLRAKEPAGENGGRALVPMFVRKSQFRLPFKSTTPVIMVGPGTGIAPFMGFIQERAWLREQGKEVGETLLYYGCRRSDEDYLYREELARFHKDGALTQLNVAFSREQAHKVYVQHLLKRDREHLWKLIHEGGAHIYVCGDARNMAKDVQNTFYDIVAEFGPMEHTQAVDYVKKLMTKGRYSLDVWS
Kind of series: A. castellanii CYP51 inhibition assay, reconstituted 1 h enzyme reaction. Format: biochemical. As to conditions: 1 h IC50, 1 h reaction, 0.5 μM P450, 50 μM obtusifoliol.

In the case of “A. castellanii CYP51 (Acanthamoeba castellanii str. Neff; V2A)”, in series [1], the Km was 2.7 ± 0.3 µM, the kcat was determined as 0.513 s⁻¹ and the kcat/Km stood at 190000 M⁻¹ s⁻¹. In addition, in series [2], the Km turned out to be 52 ± 15 µM, the catalytic constant (kcat) stood at 0.102 s⁻¹ and the specificity constant (kcat/Km) was determined as 2000 M⁻¹ s⁻¹.

`OC(Cn1cncn1)(Cn1cncn1)c1ccc(F)cc1F` [fluconazole]: at A. castellanii CYP51, half-maximal inhibition (IC50) required 71 µM.

By Km is commonly meant the concentration of substrate that gives half-maximal velocity. The kcat is the maximal rate divided by the concentration of active sites. By kcat/Km is commonly meant the second-order rate constant that governs catalysis at low substrate concentration. As usually defined, the IC50 is the point on the concentration scale where inhibition reaches its midpoint. Low values mean greater potency, high ones weaker potency.

The record behind these values is publication PMC11089504 (Journal of medicinal chemistry, 2024).
